Data published in publication PMC4656143.

Molecular target: opto-DN-CREB
Experiment: thermal relaxation kinetics

B1: CREB-bZIP (domain or fragment)
chain: ARKREVRLMKNREAARECRRKKKEYVKCLENRVAVLENQNKTLIEELKALKDLYCHKSD
Q: B1 was tested. Which stoichiometry N did it give?
A: Its stoichiometry N is 1.
